The results in this text go back to publication PMC4402612.

The assay has as its target SPE-7 IgE (DNP-specific murine IgE/λ, highly cytokinergic) (murine).

As to recombinant SPE-7 IgE Fab, the IC50 of recombinant SPE-7 IgE Fab (30–600 nM) for inhibition of LAD-2 cell TNF-α release evoked by 30 nM SPE-7 IgE; pair blocked: 'free' SPE-7 IgE with receptor-bound SPE-7 IgE turned out to be 170 nM and the IC50 of recombinant SPE-7 IgE Fab (30–600 nM) for inhibition of LAD-2 mast cell degranulation induced by 30 nM SPE-7 IgE; pair blocked: 'free' SPE-7 IgE with receptor-bound SPE-7 IgE came out at 190 nM.
